From US8642284B1, “Methods for identifying agents that alter NAD-dependent deacetylation activity of a SIR2 protein” (Massachusetts Institute of Technology, priority 1999, dated 2014)
Where a chain is given by its changes, count along the chain named. Names and notes keep the numbering of the source.

B1: F265A: recombinant mSir2α core domain mutant, residue changed to alanine (protein)
chain: MADEVALALQAAGSPSAAAAMEAASQPADEPLRKRPRRDGPGLGRSPGEPSAAVAPAAAGCEAASAAAPAALWREAAGAAASAEREAPATAVAGDGDNGSGLRREPRAADDFDDDEGEEEDEAAAAAAAAAIGYRDNLLLTDGLLTNGFHSCESDDDDRTSHASSSDWTPRPRIGPYTFVQQHLMIGTDPRTILKDLLPETIPPPELDDMTLWQIVINILSEPPKRKKRKDINTIEDAVKLLQECKKIIVLTGAGVSVSCGIPDARSRDGIYARLAVDFPDLPDPQAMFDIEYFRKDPRPFFKFAKEIYPGQFQPSLCHKFIALSDKEGKLLRNYTQNIDTLEQVAGIQRILQCHGSFATASCLICKYKVDCEAVRGDIFNQVVPRCPRCPADEPLAIMKPEIVFFGENLPEQFHRAMKYDKDEVDLLIVIGSSLKVRPVALIPSSIPHEVPQILINREPLPHLHFDVELLGDCDVIINELCHRLGGEYAKLCCNPVKLSEITEKPPRPQKELVHLSELPPTPLHISEDSSSPERTVPQDSSVIATLVDQATNNNVNDLEVSESSCVEEKPQEVQTSRNVENINVENPDFKAVGSSTADKNERTSVAETVRKCWPNRLAKEQISKRLEGNQYLFVPPNRYIFHGAEVYSDSEDDVLSSSSCGSNSDSGTCQSPSLEEPLEDESEIEEFYNGLEDDTERPECAGGSGFGADGGDQEVVNEAIATRQELTDVNYPSDKS
modifications: left off: small tags and cut ends
notes: recombinant mSir2α core domain mutant, residue changed to alanine
B2: R266A: recombinant mSir2α core domain mutant, residue changed to alanine (protein)
chain: B1 chain with A265F, R266A
modifications: left off: small tags and cut ends
notes: as for B1
B3: G270A: recombinant mSir2α core domain mutant, residue changed to alanine (protein)
chain: B1 chain with A265F, G270A
modifications: left off: small tags and cut ends
notes: as for B1
B4: T336A: recombinant mSir2α core domain mutant, residue changed to alanine (protein)
chain: B1 chain with A265F, T336A
modifications: left off: small tags and cut ends
notes: as for B1
B5: H355A: recombinant mSir2α core domain mutant, residue changed to alanine (protein)
chain: B1 chain with A265F, H355A
modifications: left off: small tags and cut ends
notes: as for B1

Test system: histone H2B
Test: ADP-ribosylation activity of wild type and mutant recombinant mSir2α proteins on histones
Format: biochemical, calf
Details: 10 μg recombinant protein; H2B radioactivity, wild type = 100%
Experimental: Site-directed mutagenesis of mSIR2α core domain was performed with the GeneEditor™ system (Promega, Madison, Wis.) according to the procedure provided by the manufacturer. The mutant recombinant proteins were prepared in the same way as described above.
The typical reaction was performed in 50 or 100 μl of the buffer containing 5 mM Tris-HCl [pH8.0 or 9.0], 4 mM MgCl2, 0.2 mM DTT, 1 μM cold β-NAD^+ (SIGMA®) and 8 μCi nicotinamide adenine dinucleotide 5′[α-^32P]triphosphate (NAD) as a donor of ADP-ribose (˜1000 Ci/mmol, Amersham Pharmacia Biotech). To check the sensitivity to poly- or mono-ADP-ribosylation inhibitors, 3-aminobenzamide (ICN Pharmaceuticals, CA), benzamide, novobiocin and coumermycin A1 (SIGMA®) were added to the reactions prior to adding Sir2 proteins, respectively. The wild type or mutant recombinant proteins (0.5-1 μg for ySir2p and 10 μg of mSir2α) were added with 4 μg of each histone purchased from Roche Molecular Biochemicals (Indianapolis, Ind.). For the peptide experiments, 5-10 μg of unacetylated or acetylated N-terminal tail peptides (amino acids 1-20) of H3 and H4 purchased from Upstate Biotechnology™ (Lake Placid, N.Y.) were used as substrates of the yeast and mouse Sir2 recombinant proteins.
To analyze histone modification, 25 μl of 100% trichloroacetic acid (TCA) solution was mixed to the reaction mixture and left on ice for 15 min. The protein precipitates were centrifuged at 4° C. and washed with 5 or 20% TCA solution twice. The pellets were dissolved in 15 μl of Leammli's sample buffer and boiled for 1.5 min. The proteins were electrophoresed in a 10-20% gradient SDS-PAGE gel. The gel was stained with COOMASSIE® Brilliant Blue R-250 (GibcoBRL Life Technologies™, Frederick, Md.) to check equal loading of histones, dried, and exposed to KODAK® X-OMAT film.
Aliquots of recombinant protein (10 μg) of the wild type recombinant mSir2α (WT), the pET control pET, and the mutant proteins (G253A, G255A, S257A, I262A, F265A, R266A, G270A, P285A, T336A, H355A) were incubated with H2B or H3. […] All of the mutations of highly conserved residues dramatically affected the mono-ADP-ribosylation activity of mSir2α (FIG. 6B). The results were similar using H2B or H3.
The radioactivity of H2B modified by the wild type is assigned to 100% and other data were normalized according to the wild type activity and blots quantitated by Phosphorimaging. The averages and the standard deviations were calculated from two independent experiments. In the core domain of ySir2p, mutations on highly conserved residues also affected the mono-ADP-ribosylation activity. Therefore, the core domain of Sir2 proteins contain the catalytic activity of mono-ADP-ribosylation and the evolutionarily conserved residues in the core domain are essential for this activity.

| Molecule | mono-ADP-ribosylation activity compared to the wild type activity |
| --- | --- |
| B1 | completely abolished the activity |
| B2 | 18% |
| B3 | completely abolished the activity |
| B4 | completely abolished the activity |
| B5 | completely abolished the activity |
